{
  "source": "patent US20240261333A1",
  "about": "“NOVEL TARGETS FOR ENHANCING ANTI-TUMOR IMMUNITY” (THE BROAD INSTITUTE, INC., priority 2021, published 2024)",
  "key": {"SLC25A22 (human)": {"target": "SLC25A22 (human) (UniProt Q9H936)", "test": "anti-FLAG co-IP from lysate of C-FLAG B3GNT2 cells, mass spectrometry"}, "NTPCR (human)": {"target": "NTPCR (human) (UniProt Q9BSD7)", "sequence (Q9BSD7 2-190 limits assumed)": "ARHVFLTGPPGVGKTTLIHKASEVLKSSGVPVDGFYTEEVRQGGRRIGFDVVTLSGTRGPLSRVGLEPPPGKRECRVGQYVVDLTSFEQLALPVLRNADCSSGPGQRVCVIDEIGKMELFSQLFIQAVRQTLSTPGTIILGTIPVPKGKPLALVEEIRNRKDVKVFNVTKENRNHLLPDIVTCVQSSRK", "test": "anti-FLAG co-IP from lysate of C-FLAG B3GNT2 cells, mass spectrometry"}, "RRBP1 (human)": {"target": "RRBP1 (human) (UniProt Q9P2E9)", "sequence (Q9P2E9 whole entry)": "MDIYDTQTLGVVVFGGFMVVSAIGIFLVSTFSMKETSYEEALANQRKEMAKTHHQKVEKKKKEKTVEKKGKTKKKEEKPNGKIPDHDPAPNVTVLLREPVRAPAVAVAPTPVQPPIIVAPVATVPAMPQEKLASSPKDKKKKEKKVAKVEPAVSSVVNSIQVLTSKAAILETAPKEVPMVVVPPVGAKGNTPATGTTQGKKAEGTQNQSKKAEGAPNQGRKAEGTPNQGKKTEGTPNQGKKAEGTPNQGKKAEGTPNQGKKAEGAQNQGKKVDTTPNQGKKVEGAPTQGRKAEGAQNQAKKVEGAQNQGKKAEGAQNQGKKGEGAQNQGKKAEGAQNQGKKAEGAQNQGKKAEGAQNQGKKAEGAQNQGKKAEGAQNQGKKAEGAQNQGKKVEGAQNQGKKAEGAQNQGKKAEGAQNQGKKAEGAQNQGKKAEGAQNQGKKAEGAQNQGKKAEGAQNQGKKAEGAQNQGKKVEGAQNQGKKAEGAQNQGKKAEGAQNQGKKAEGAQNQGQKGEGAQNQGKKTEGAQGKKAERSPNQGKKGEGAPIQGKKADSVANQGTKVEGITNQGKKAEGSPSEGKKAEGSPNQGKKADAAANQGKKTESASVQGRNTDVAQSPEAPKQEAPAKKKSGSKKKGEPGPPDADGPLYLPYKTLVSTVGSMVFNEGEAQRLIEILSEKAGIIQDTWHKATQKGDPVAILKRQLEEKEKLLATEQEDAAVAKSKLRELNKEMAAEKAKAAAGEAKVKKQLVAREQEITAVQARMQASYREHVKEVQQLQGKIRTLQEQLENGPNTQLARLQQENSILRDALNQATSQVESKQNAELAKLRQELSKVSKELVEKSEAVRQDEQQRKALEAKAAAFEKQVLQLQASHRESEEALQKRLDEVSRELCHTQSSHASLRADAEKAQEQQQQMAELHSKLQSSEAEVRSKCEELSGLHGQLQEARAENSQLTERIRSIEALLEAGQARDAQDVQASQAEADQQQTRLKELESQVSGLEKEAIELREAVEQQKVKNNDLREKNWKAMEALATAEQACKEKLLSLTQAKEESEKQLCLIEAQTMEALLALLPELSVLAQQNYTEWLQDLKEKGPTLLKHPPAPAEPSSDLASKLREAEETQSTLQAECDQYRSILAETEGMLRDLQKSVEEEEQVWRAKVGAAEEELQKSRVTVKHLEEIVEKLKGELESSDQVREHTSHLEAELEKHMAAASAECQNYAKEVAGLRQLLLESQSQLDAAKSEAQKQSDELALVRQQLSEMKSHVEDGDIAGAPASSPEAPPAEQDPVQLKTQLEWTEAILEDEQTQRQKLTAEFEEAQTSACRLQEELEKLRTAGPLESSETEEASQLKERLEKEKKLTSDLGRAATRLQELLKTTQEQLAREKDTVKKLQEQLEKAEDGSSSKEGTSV", "test": "anti-FLAG co-IP from lysate of C-FLAG B3GNT2 cells, mass spectrometry"}, "KPNB1 (human)": {"target": "KPNB1 (human) (UniProt Q14974)", "test": "anti-FLAG co-IP from lysate of C-FLAG B3GNT2 cells, mass spectrometry"}, "FBXO6 (human)": {"target": "FBXO6 (human) (UniProt Q9NRD1)", "sequence (Q9NRD1 whole entry)": "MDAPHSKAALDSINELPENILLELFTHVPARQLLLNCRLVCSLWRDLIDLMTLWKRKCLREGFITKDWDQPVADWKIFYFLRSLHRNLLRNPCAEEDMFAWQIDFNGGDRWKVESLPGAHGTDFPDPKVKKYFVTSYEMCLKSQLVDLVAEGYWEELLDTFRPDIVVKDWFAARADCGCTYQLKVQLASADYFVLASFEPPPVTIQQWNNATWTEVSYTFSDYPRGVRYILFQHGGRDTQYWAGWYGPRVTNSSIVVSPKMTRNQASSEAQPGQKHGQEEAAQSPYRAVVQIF", "test": "anti-FLAG co-IP from lysate of C-FLAG B3GNT2 cells, mass spectrometry"}, "PXN (human)": {"target": "PXN (human) (UniProt P49023)", "test": "anti-FLAG co-IP from lysate of C-FLAG B3GNT2 cells, mass spectrometry"}, "RCN1 (human)": {"target": "RCN1 (human) (UniProt Q15293)", "test": "anti-FLAG co-IP from lysate of C-FLAG B3GNT2 cells, mass spectrometry"}, "PSMB6 (human)": {"target": "PSMB6 (human) (UniProt P28072)", "test": "anti-FLAG co-IP from lysate of C-FLAG B3GNT2 cells, mass spectrometry"}, "ZRANB2 (human)": {"target": "ZRANB2 (human) (UniProt O95218)", "test": "anti-FLAG co-IP from lysate of C-FLAG B3GNT2 cells, mass spectrometry"}, "SFXN3 (human)": {"target": "SFXN3 (human) (UniProt Q9BWM7)", "sequence (Q9BWM7 whole entry)": "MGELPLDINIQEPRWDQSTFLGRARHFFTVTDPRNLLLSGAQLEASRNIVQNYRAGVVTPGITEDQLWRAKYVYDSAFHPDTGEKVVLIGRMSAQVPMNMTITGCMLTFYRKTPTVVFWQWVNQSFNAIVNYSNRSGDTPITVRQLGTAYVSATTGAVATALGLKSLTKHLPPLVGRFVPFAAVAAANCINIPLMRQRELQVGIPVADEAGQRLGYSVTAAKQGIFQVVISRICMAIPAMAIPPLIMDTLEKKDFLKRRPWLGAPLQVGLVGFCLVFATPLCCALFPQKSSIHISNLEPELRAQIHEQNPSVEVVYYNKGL", "test": "anti-FLAG co-IP from lysate of C-FLAG B3GNT2 cells, mass spectrometry"}, "UBTF (human)": {"target": "UBTF (human) (UniProt P17480)", "test": "anti-FLAG co-IP from lysate of C-FLAG B3GNT2 cells, mass spectrometry"}, "PDIA4 (human)": {"target": "PDIA4 (human) (UniProt P13667)", "sequence (P13667 21-645 limits assumed)": "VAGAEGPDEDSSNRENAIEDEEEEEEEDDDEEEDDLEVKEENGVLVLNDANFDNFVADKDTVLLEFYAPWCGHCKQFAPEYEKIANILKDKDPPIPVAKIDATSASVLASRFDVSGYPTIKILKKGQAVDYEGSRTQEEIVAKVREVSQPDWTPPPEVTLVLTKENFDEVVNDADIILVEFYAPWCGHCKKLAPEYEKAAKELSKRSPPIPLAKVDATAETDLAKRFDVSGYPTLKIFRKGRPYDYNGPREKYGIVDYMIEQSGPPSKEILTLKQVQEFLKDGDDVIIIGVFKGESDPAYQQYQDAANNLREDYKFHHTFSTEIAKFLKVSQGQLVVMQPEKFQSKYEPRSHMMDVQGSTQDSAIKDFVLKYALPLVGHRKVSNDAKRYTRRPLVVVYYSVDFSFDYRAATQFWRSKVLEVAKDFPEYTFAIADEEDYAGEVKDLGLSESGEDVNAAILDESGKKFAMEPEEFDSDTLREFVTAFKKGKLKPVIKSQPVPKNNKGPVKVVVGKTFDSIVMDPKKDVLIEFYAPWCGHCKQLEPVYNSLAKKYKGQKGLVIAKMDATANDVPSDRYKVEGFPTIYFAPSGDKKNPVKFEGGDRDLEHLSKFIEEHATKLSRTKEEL", "test": "anti-FLAG co-IP from lysate of C-FLAG B3GNT2 cells, mass spectrometry"}, "HSP90AB1 (human)": {"target": "HSP90AB1 (human) (UniProt P08238)", "test": "anti-FLAG co-IP from lysate of C-FLAG B3GNT2 cells, mass spectrometry"}, "ABCD1 (human)": {"target": "ABCD1 (human) (UniProt P33897)", "test": "anti-FLAG co-IP from lysate of C-FLAG B3GNT2 cells, mass spectrometry"}, "TUBA1C (human)": {"target": "TUBA1C (human) (UniProt Q9BQE3)", "test": "anti-FLAG co-IP from lysate of C-FLAG B3GNT2 cells, mass spectrometry"}, "LARP4 (human)": {"target": "LARP4 (human) (UniProt Q71RC2)", "test": "anti-FLAG co-IP from lysate of C-FLAG B3GNT2 cells, mass spectrometry"}, "TECR (human)": {"target": "TECR (human) (UniProt Q9NZ01)", "test": "anti-FLAG co-IP from lysate of C-FLAG B3GNT2 cells, mass spectrometry"}, "RPL15 (human)": {"target": "RPL15 (human) (UniProt P61313)", "test": "anti-FLAG co-IP from lysate of C-FLAG B3GNT2 cells, mass spectrometry"}, "DNAJA3 (human)": {"target": "DNAJA3 (human) (UniProt Q96EY1)", "test": "anti-FLAG co-IP from lysate of C-FLAG B3GNT2 cells, mass spectrometry"}, "ERP44 (human)": {"target": "ERP44 (human) (UniProt Q9BS26)", "test": "anti-FLAG co-IP from lysate of C-FLAG B3GNT2 cells, mass spectrometry"}, "RPL34 (human)": {"target": "RPL34 (human) (UniProt P49207)", "test": "anti-FLAG co-IP from lysate of C-FLAG B3GNT2 cells, mass spectrometry"}, "EEF2 (human)": {"target": "EEF2 (human) (UniProt P13639)", "test": "anti-FLAG co-IP from lysate of C-FLAG B3GNT2 cells, mass spectrometry"}, "IPO7 (human)": {"target": "IPO7 (human) (UniProt O95373)", "test": "anti-FLAG co-IP from lysate of C-FLAG B3GNT2 cells, mass spectrometry"}, "LDHA (human)": {"target": "LDHA (human) (UniProt P00338)", "test": "anti-FLAG co-IP from lysate of C-FLAG B3GNT2 cells, mass spectrometry"}, "H1FX (human)": {"target": "H1FX (human) (UniProt Q92522)", "sequence (Q92522 2-213 limits assumed)": "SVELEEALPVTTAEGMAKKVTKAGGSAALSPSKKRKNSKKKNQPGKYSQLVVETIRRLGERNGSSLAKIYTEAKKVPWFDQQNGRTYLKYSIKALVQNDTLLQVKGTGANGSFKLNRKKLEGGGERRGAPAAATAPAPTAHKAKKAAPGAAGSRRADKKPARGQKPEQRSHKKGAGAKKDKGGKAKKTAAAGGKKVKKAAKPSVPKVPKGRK", "test": "anti-FLAG co-IP from lysate of C-FLAG B3GNT2 cells, mass spectrometry"}, "ACSL3 (human)": {"target": "ACSL3 (human) (UniProt O95573)", "sequence (O95573 whole entry)": "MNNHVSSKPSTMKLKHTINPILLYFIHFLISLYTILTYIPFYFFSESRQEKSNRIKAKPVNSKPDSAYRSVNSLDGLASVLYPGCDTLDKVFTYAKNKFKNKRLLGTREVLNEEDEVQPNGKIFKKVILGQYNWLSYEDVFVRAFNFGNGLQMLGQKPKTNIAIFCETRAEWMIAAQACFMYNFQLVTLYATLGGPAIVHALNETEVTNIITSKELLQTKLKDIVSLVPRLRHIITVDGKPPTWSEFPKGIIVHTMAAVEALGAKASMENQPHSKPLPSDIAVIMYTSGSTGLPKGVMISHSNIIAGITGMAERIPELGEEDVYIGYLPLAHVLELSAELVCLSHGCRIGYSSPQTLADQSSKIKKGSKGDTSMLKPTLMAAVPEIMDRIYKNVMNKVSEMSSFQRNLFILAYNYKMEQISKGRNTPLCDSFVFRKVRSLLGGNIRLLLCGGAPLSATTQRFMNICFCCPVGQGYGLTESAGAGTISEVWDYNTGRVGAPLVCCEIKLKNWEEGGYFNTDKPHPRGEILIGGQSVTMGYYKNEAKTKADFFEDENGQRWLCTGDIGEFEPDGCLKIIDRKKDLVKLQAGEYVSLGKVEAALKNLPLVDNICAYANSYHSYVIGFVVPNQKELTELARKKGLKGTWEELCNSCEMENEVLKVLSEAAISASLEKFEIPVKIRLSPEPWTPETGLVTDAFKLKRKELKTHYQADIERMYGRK", "test": "anti-FLAG co-IP from lysate of C-FLAG B3GNT2 cells, mass spectrometry"}, "HDGFL2 (human)": {"target": "HDGFL2 (human) (UniProt Q7Z4V5)", "test": "anti-FLAG co-IP from lysate of C-FLAG B3GNT2 cells, mass spectrometry"}, "KTN1 (human)": {"target": "KTN1 (human) (UniProt Q86UP2)", "test": "anti-FLAG co-IP from lysate of C-FLAG B3GNT2 cells, mass spectrometry"}, "AIFM1 (human)": {"target": "AIFM1 (human) (UniProt O95831)", "sequence (O95831 55-613 limits assumed)": "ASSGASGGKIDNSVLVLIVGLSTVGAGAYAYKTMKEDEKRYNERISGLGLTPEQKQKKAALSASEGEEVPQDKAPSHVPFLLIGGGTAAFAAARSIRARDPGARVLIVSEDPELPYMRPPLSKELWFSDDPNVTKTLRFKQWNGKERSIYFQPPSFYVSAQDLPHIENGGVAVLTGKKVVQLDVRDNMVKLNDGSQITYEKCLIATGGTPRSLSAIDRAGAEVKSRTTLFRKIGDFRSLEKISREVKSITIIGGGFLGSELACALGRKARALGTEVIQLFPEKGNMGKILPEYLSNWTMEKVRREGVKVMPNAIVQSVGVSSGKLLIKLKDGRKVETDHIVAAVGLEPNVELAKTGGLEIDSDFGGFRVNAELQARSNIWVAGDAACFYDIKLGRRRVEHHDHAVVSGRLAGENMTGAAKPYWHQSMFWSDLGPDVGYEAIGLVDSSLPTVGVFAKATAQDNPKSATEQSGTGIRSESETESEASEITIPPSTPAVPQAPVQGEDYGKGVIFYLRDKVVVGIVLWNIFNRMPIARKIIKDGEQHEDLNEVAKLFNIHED", "test": "anti-FLAG co-IP from lysate of C-FLAG B3GNT2 cells, mass spectrometry"}, "ATAD3A (human)": {"target": "ATAD3A (human) (UniProt Q9NVI7)", "test": "anti-FLAG co-IP from lysate of C-FLAG B3GNT2 cells, mass spectrometry"}, "TRAFD1 (human)": {"target": "TRAFD1 (human) (UniProt O14545)", "test": "anti-FLAG co-IP from lysate of C-FLAG B3GNT2 cells, mass spectrometry"}, "ELOC (human)": {"target": "ELOC (human) (UniProt Q15369)", "test": "anti-FLAG co-IP from lysate of C-FLAG B3GNT2 cells, mass spectrometry"}, "PGAM5 (human)": {"target": "PGAM5 (human) (UniProt Q96HS1)", "test": "anti-FLAG co-IP from lysate of C-FLAG B3GNT2 cells, mass spectrometry"}, "RPS6 (human)": {"target": "RPS6 (human) (UniProt P62753)", "test": "anti-FLAG co-IP from lysate of C-FLAG B3GNT2 cells, mass spectrometry"}, "PRDX1 (human)": {"target": "PRDX1 (human) (UniProt Q06830)", "test": "co-IP/MS, IgG control IP of C-FLAG B3GNT2 cell lysate"}, "RPS15 (human)": {"target": "RPS15 (human) (UniProt P62841)", "test": "co-IP/MS, IgG control IP of C-FLAG B3GNT2 cell lysate"}, "PDIA6 (human)": {"target": "PDIA6 (human) (UniProt Q15084)", "test": "co-IP/MS, IgG control IP of C-FLAG B3GNT2 cell lysate"}, "TGM3 (human)": {"target": "TGM3 (human) (UniProt Q08188)", "sequence (Q08188 2-693 limits assumed)": "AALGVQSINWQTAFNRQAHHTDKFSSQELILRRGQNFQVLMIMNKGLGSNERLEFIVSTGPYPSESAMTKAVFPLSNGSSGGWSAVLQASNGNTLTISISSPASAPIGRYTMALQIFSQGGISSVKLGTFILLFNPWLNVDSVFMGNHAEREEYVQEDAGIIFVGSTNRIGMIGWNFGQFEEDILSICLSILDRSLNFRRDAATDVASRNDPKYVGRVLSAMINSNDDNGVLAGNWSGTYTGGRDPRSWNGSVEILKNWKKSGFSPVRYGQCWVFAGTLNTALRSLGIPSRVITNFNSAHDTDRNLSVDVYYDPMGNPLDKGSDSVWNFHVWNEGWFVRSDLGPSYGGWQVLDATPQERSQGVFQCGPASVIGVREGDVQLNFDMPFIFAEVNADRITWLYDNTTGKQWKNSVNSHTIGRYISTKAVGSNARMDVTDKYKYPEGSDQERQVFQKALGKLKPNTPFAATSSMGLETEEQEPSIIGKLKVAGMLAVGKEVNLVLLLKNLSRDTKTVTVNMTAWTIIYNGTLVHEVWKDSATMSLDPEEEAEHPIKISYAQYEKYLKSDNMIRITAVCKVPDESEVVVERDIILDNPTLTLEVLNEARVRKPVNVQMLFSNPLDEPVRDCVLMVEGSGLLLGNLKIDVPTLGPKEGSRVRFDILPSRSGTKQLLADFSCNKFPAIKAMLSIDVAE", "test": "co-IP/MS, IgG control IP of C-FLAG B3GNT2 cell lysate"}},
  "data": [
    {"substance": "C-terminal FLAG tagged B3GNT2 (from UniProt Q9NY97 1-397) (enzyme)", "values": [
      {"measurement": "co-IP mass spectrometry count", "setting": "SLC25A22 (human)", "value": 2},
      {"measurement": "co-IP mass spectrometry count", "setting": "NTPCR (human)", "value": 2},
      {"measurement": "co-IP mass spectrometry count", "setting": "RRBP1 (human)", "value": 16},
      {"measurement": "co-IP mass spectrometry count", "setting": "KPNB1 (human)", "value": 7},
      {"measurement": "co-IP mass spectrometry count", "setting": "FBXO6 (human)", "value": 5},
      {"measurement": "co-IP mass spectrometry count", "setting": "PXN (human)", "value": 0},
      {"measurement": "co-IP mass spectrometry count", "setting": "RCN1 (human)", "value": 9},
      {"measurement": "co-IP mass spectrometry count", "setting": "PSMB6 (human)", "value": 3},
      {"measurement": "co-IP mass spectrometry count", "setting": "ZRANB2 (human)", "value": 3},
      {"measurement": "co-IP mass spectrometry count", "setting": "SFXN3 (human)", "value": 2},
      {"measurement": "co-IP mass spectrometry count", "setting": "UBTF (human)", "value": 2},
      {"measurement": "co-IP mass spectrometry count", "setting": "PDIA4 (human)", "value": 9},
      {"measurement": "co-IP mass spectrometry count", "setting": "HSP90AB1 (human)", "value": 11},
      {"measurement": "co-IP mass spectrometry count", "setting": "ABCD1 (human)", "value": 2},
      {"measurement": "co-IP mass spectrometry count", "setting": "TUBA1C (human)", "value": 63},
      {"measurement": "co-IP mass spectrometry count", "setting": "LARP4 (human)", "value": 2},
      {"measurement": "co-IP mass spectrometry count", "setting": "TECR (human)", "value": 9},
      {"measurement": "co-IP mass spectrometry count", "setting": "RPL15 (human)", "value": 15},
      {"measurement": "co-IP mass spectrometry count", "setting": "DNAJA3 (human)", "value": 2},
      {"measurement": "co-IP mass spectrometry count", "setting": "ERP44 (human)", "value": 2},
      {"measurement": "co-IP mass spectrometry count", "setting": "RPL34 (human)", "value": 2},
      {"measurement": "co-IP mass spectrometry count", "setting": "EEF2 (human)", "value": 5},
      {"measurement": "co-IP mass spectrometry count", "setting": "IPO7 (human)", "value": 9},
      {"measurement": "co-IP mass spectrometry count", "setting": "LDHA (human)", "value": 4},
      {"measurement": "co-IP mass spectrometry count", "setting": "H1FX (human)", "value": 2},
      {"measurement": "co-IP mass spectrometry count", "setting": "ACSL3 (human)", "value": 5},
      {"measurement": "co-IP mass spectrometry count", "setting": "HDGFL2 (human)", "value": 2},
      {"measurement": "co-IP mass spectrometry count", "setting": "KTN1 (human)", "value": 2},
      {"measurement": "co-IP mass spectrometry count", "setting": "AIFM1 (human)", "value": 5},
      {"measurement": "co-IP mass spectrometry count", "setting": "ATAD3A (human)", "value": 9},
      {"measurement": "co-IP mass spectrometry count", "setting": "TRAFD1 (human)", "value": 2},
      {"measurement": "co-IP mass spectrometry count", "setting": "ELOC (human)", "value": 2},
      {"measurement": "co-IP mass spectrometry count", "setting": "PGAM5 (human)", "value": 5},
      {"measurement": "co-IP mass spectrometry count", "setting": "RPS6 (human)", "value": 20}
    ]},
    {"substance": "IgG control (Millipore Sigma 12-371) (antibody)", "values": [
      {"measurement": "co-IP mass spectrometry count", "setting": "PRDX1 (human)", "value": 0},
      {"measurement": "co-IP mass spectrometry count", "setting": "RPS15 (human)", "value": 2},
      {"measurement": "co-IP mass spectrometry count", "setting": "PDIA6 (human)", "value": 0},
      {"measurement": "co-IP mass spectrometry count", "setting": "TGM3 (human)", "value": 3}
    ]}
  ]
}
